Experimental data published in the supplement of paper PMC9170038.

Assays:
MS2 coat protein [1] = assay: apparent KD of MS2 coat protein; higher = weaker reporter binding; conditions: Eterna round: R101
Experimental: (§1)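 RNA-MaP: designed FMN/MS2 RNA switches (84 nt design region) are transcribed on-chip within common flanks and titrated with SNAP-549-labelled MS2 coat protein (about 1-3000 nM) in 100 mM Tris pH 7.5, 80 mM KCl, 4 mM MgCl2, without or with 200 uM FMN. Median apparent KD per design; activation ratio = KD,OFF / KD,ON.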

MS2 coat protein [2] = assay: apparent KD of MS2 coat protein; designed switch direction (-1 OFF switch, 1 ON switch): 1; higher = weaker reporter binding; conditions: Eterna round: R98
Experimental: as §1

MS2 coat protein [3] = assay: apparent KD of MS2 coat protein; designed switch direction (-1 OFF switch, 1 ON switch): -1; higher = weaker reporter binding; conditions: Eterna round: R98
Experimental: as §1

| Sequence | apparent KD of MS2 coat protein (MS2 coat protein [1]; input ligand: FMN 200 uM) [nM] | apparent KD of MS2 coat protein (MS2 coat protein [1]; input ligand: none) [nM] | apparent KD of MS2 coat protein (MS2 coat protein [2]; input ligand: FMN 200 uM) [nM] | apparent KD of MS2 coat protein (MS2 coat protein [2]; input ligand: none) [nM] | also measured |
| --- | --- | --- | --- | --- | --- |
| AAAGAUUUUUAAGGAUAUCAGUGGCAAAGCCACUGAGAAGGUGAGGAUCACCCAUCUACGUGACCCUGGAAACAGGGUCACGAA [#SharedSequence - ExNG1-16] (puzzle (switch architecture): Exclusion NG 1) | 96.9 | 56.7 |  |  |  |
| AAAGAUUUUUAAGGAUAUGACUCCGAAACGGAGUCAGAAGGUGAGGAUCACCCACCUAGCUCAGGGUCGAAAGACCCUGAGCAA [#SharedSequence - ExNG1-13] (puzzle (switch architecture): Exclusion NG 1) | 9.48 | 9.02 |  |  |  |
| ACAGGUCGUGAGAAGGCGGGUGGCACCGUCGAAAGACGGUGCAAUUAAAAUCUUCGAGGAUCACCCGAGGAUAUCACGACCUGA [#SharedSequence - IExNG2: 17] (puzzle (switch architecture): Inverted Exclusion NG 2) | 28.6 | 55.9 |  |  |  |
| AGACCUGCUCAGAAGGCGGAUACGAGGCUGGAAACAGCCUCGUAAUUAAAUCUUCGAGGAUCACCCGAGGAUAUGAGCAGGUCA [#SharedSequence - IExNG2: 13] (puzzle (switch architecture): Inverted Exclusion NG 2) | 28.4 | 10.3 |  |  |  |
| AGAGCUGCUCAGAAGGAGGAUCACCCUUUCGAAAGAAAUACGGAGGCUGAAAAGCCUCCGAAAUUCUAGGAUAUGAGCAGCUCA [#SharedSequence - IExNG2: 7] (puzzle (switch architecture): Inverted Exclusion NG 2) | 133 | 167 |  |  |  |
| AUAAUAACUUGAGGAUAUGCUCAGGAAUACUGAGCAGAAGGCAGGGAAACCUGAGGAUCACCCAGGUAACUGGAAUAAUAAUAA [Same State NG1 - A3C, U17G Submission 4A] |  |  | 25.6 | 25.8 |  |
| AUAAUAACUUGAGGAUAUGCUCAGGAAUACUGAGCAGAAGGCAGGGAAACCUGAGGAUCACCCAGGUGAAUAAUAAUAAUAAUA [Same State NG1 - A3C, U17G Submission 1A] |  |  | 18.3 | 23.4 |  |
| CAUGUCCUCACAGGAUAUGCUGGACUUUGUCCAGCAGAAGGGUGAUAACAUGAGGAUCACCCAUGUGGACAUGAUAUAUUUAAG [Mat - Same State NG 1 - Eli mod - D95] |  |  | 623 | 106 |  |
| CCAUAAAAGAUCCAAAAUUACAACAUGAGGAUCACCCAUGUGCAGGAUAUCGUGAAAGUAAAAUACGAGAAGGGCAAGAACUGC [salish99_ExNG3_r2_004] |  |  |  |  | apparent KD of MS2 coat protein (MS2 coat protein [3]; input ligand: FMN 200 uM): 425 nM; apparent KD of MS2 coat protein (MS2 coat protein [3]; input ligand: none): 430 nM |
| CCGGAAACGGGUAGCUGACAUGAGGAUCACCCAUGUGAUACACAGGAUAUGGAUCCUAAUUGGAUCCAGAAGGGUGUCAGCUAC [Mat - Same State NG 3 - JL Mod - D84] |  |  | 130 | 1270 |  |
| CCUGCACUUCAAGGAUAUCCAGUCGAAACGACUGGAGAAGGUGAGGAUCACCCAUCUAGCCUGACGAAAGUCAGGCAUGCAGGA [#SharedSequence - ExNG1-7] (puzzle (switch architecture): Exclusion NG 1) | 101 | 90.4 |  |  |  |
| CCUGCACUUCAAGGAUAUCCAGUCGUUUCGACUGGAGAAGGUGAGGAUCACCCACCUAGCCUGACGUUUGUCAGGCAUGCAGGU [#AddUracilToBrourdLoops 3 - Jieux - Exclusion NG1] (puzzle (switch architecture): Exclusion NG 1) | 8.78 | 8.76 |  |  |  |
| CGAGACACUUGAGGAUAUGCUCAGGAAUACUGAGCAGAAGGCAGGAAAACCUGAGGAUCACCCAGGUAACUGGAAAGUCUCGAA [Same State NG1 - A3C, U17G Submission 5E-G46A] |  |  | 16.9 | 19.6 |  |
| CUAAUAUAGUGAGGAUAUGCACAGGAUCACCGUGUAGAAGGCAUCAGGUAGAAGGUGCAGAGGAUCACCCUGUAAGGAUAUACC [pwkr2 ssNG1 DX.4] |  |  | 32.4 | 69.4 |  |
| CUGCAAAUCUUAGGAUAUGCUCAGGAAUACUGAGCAGAAGGAAGAUAUACCUGAGGAUCACCCAGGUAAAACUGGAGCAGAAUA [Same State NG1 - A3C, U17G Submission 8G U68A, U7A] |  |  | 24.3 | 26.6 |  |
| GACCGUCCCACAGGAUAUAGAAGGGCGUCCGUUCUAGAAGGGUGAUCAGGACCAAAAGGUCACAUGAGGAUCACCCAUGUAGGU [Usorti] |  |  | 43.7 | 36.6 |  |

| Sequence | apparent KD of MS2 coat protein (MS2 coat protein [1]; input ligand: FMN 200 uM) [nM] | apparent KD of MS2 coat protein (MS2 coat protein [1]; input ligand: none) [nM] | apparent KD of MS2 coat protein (MS2 coat protein [2]; input ligand: FMN 200 uM) [nM] | apparent KD of MS2 coat protein (MS2 coat protein [2]; input ligand: none) [nM] | also measured |
| --- | --- | --- | --- | --- | --- |
| GCCAUCGCAUGAGGAUAUGGCACCGUUUCGGUGCCAGAAGGCAUGUCAUAAGACAUGAGGAUCACCCAUGUAAAUAAGAUGGCA [JanderMod 3 - Jieux - Same State NG 1] |  |  | 47.9 | 715 |  |
| GCUGCUAUCGCAGGAUAUUACAUGGGAAAUAAAACAUGAGGAUCACCCAUGUUAAAUAUCGUAAAUAAGAAGGGCGAUAGCAGC [Lame State 2 - Jieux - Same State NG 2] |  |  | 178 | 1120 |  |
| GCUGUCGCAUGAGGAUAUGGUCUGCUUUGCAGACCAGAAGGCAUGUCGAUAGACAUGAGGAUCACCCAUGUAGUAAAGACAGCA [Mat - Same State NG 1 - JL Mod - D49] |  |  | 57.1 | 306 |  |
| GGACUCACUUGAGGAUAUCGAGUGGAAUACACUCGAGAAGGCAGGAAAACCUGAGGAUCACCCAGGUAAGAGUCCAAUAAUAAU [Same State NG1 - A3C, U17G Submission 3C] |  |  | 17.1 | 17.9 |  |
| GGCCGGCAGCUAGGAUAUGGGCGGUCACAUGAGGAUCACCCAUGUCAACAUCAAAACCAGAUUAACCAGAAGGAGCUGCGAGUU [Arza] |  |  | 1230 | 27.6 |  |
| GGUCCAACAUGAGGAUAUGGCACCUUAUUGGUGCCAGAAGGCGUGUCUAUAGACAUGAGGAUCACCCAUGUAAUAAAUUGGACC [SameState #22 NG1] |  |  | 45.4 | 796 |  |
| GGUCGACCUCAAGGAUAUGGACUGCUUUGCAGUCCAGAAGGUGAGGAUCACCCACCUACGGUCAGGUUUCUGACCGAUCGACCU [#AddUracilToBrourdLoops 2 - Jieux - Exclusion NG1] (puzzle (switch architecture): Exclusion NG 1) | 79.2 | 14.2 |  |  |  |
| GGUCGACCUCAAGGAUAUGGACUGCUUUGCAGUCCAGAAGGUGAGGAUCACCCAUCUACGGUCAGGUUUCUGACCGAUCGACCU [#AddUracilToBrourdLoops 6 - Jieux - Exclusion NG1] (puzzle (switch architecture): Exclusion NG 1) | 260 | 282 |  |  |  |
| GUAGCAUUCUGAGGAUAUUCAUACCGGAAACGGACAUGAGGAUCACCCAUGUGGCGAAAGCCUUGGGAGAAGGCAGUAUGCUAC [#DoubleMagnetSystem - Xeonanis 25 9 - Original] (puzzle (switch architecture): Same State NG 2) | 9.21 | 247 |  |  |  |
| UAAAUAAAUCCUAGAGGAUCACCCUAGGAUAUGAGGCUGCACCUCGGAUAAUCCGAGGUGCAGCCUCAGAAGGAGGGUAAUAAA [#SharedSequence - SLExNG3: 1-2] (puzzle (switch architecture): Small Loop Exclusion NG 3) | 43.1 | 14.4 |  |  |  |
| UAGAAGCUCACAGGAUAUCAGUAUGCGCGAUCUAACGCAUUAAUGAACUGCUGAGAAGGGUGAGACAUGAGGAUCACCCAUGUA [Enesraadi] (puzzle (switch architecture): Small Loop Same State NG 1) | 395 | 236 |  |  |  |
| UAUAUAUAAUAUAUUAACAUGAGGAUCACCCAUGUCGCUAGACAGGAUAUAUUUAAUAUUAUUAAGUAGAAGGGUCAUAUAAUU [LRO007_SS NG 3] |  |  | 77.4 | 78.6 |  |
| UCAUAAUAGAUCCUAUUUAUCUACAUGAGGAUCACCCAUGUGCAGGAUAUGCUAAAAUUAAAAUAGCAGAAGGGCAAUUUCAGC [JR_ExcNG3_Sub013] |  |  |  |  | apparent KD of MS2 coat protein (MS2 coat protein [3]; input ligand: FMN 200 uM): 359 nM; apparent KD of MS2 coat protein (MS2 coat protein [3]; input ligand: none): 94.3 nM |
| UCGUGUUUAACAGGAUAUCCUCAACGACACAUGAGGAUCACCCAUGUUCGGAGCCAAAUGGCUUAGGAGAAGGGUUAGAAACAA [Isceenvere] |  |  | 75.8 | 701 |  |
| UUUGGGAGCACAGGAUAUGGCGCCUCGGAGGCGCCAGAAGGGUGAUUCUGUUGGUGGCCACAUGAGGAUCACCCAUGUGCCUCC [Rienorarve] |  |  | 19.2 | 15.9 |  |
